We go through 26 molecules from US20230338477A1 (published 2023).

B1: 12845B (antibody, V domains shown)
VH: EVQLVESGGGLVQPGGSLRLSCAASGFTVSNYEMNWVRQAPGKGLEWVSYISSSTSNIYYADSVKGRFTISRDNAENSLYLQMNSLRVEDTAVYYCVRDGIVVVPVGRGYYYYGLDVWGQGTTVTVSS
VL: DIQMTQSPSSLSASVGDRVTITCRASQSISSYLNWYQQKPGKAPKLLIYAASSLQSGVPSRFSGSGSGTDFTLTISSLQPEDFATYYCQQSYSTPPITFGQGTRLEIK
notes: Anti-hTfR antibody of the initial screen; only variable domains are tied to it
B2: 12816B (antibody, V domains shown)
VH: QVQLVESGGGLVKPGGSLRLSCAASGFTFSDYYMNWIRQAPGKGLEWVSYISSSGTTIYYADSVKGRFTISRDNAKKSLYLEMNSLRAEDTAVYYCAREGYGNDYYYYGIDVWGQGTTVTVSS
VL: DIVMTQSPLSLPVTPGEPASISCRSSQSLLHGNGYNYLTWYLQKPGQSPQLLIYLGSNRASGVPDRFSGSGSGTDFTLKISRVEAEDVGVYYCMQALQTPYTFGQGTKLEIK
notes: as for B1
B3: 69261 (antibody, V domains shown)
VH: QVQLVESGGGLVKPGGSLRLSCAASGFTFSVYYMNWIRQAPGKGLEWVSYISSSGSTIYYADSVKGRFTISRDNAKNSLYLQMNSLRAEDTAVYYCGREGYSGTYSYYGMDVWGQGTTVTVSS
VL: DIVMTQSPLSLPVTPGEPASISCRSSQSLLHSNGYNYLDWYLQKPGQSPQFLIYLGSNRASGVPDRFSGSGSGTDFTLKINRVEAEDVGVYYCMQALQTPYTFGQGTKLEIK
notes: as for B1
B4: 12833B (antibody, V domains shown)
VH: QVQLVESGGGVVQPGRSLRLSCAASGFTFSSFGMHWVRQAPGKGLEWVIFISYDGSDKYYADSVKGRFAISRDSSKNTLYLQMNSLRAEDTAVYYCAKENGILTDSYGMDVWGQGTTVTVSS
VL: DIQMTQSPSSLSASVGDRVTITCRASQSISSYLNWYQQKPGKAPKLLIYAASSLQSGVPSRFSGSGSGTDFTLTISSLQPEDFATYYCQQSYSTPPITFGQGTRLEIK
notes: as for B1
B5: 12808B (antibody, V domains shown)
VH: QLQLQESGPGLVKPSETLSLTCTVSGESISSNTYYWGWIRQPPGKGLEWIGSIDYSGTTNYNPSLKSRVTISVDTSRNHFSLRLRSVTAADTAVYYCAREWGNYGYYYGMDVWGQGTTVTVSS
VL: DIQMTQSPSSLSASVGDRVTINCRASQGIRNDLGWYQQKPGKAPKRLIYAASSLQSGVPLRFSGSGSGTEFTLTINNLQPEDFATYYCLSHNSYPWTFGQGTKVEIK
notes: as for B1
B6: 12847B (antibody, V domains shown)
VH: EVQLVESGGGLVQPGRSLRLSCAASGFTFDDYAMNWVRQAPGKGLEWVSGISWSSGSMDYADSVKGRFTISRDNAKNSLYLQMNSLRTEDTALYYCAKAREVGDYYGMDVWGQGTTVTVSS
VL: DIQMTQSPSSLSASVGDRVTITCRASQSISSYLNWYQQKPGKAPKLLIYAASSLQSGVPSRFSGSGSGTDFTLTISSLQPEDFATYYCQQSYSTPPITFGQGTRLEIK
notes: as for B1
B7: 12844B (antibody, V domains shown)
VH: EVQLVESGGSVVRPGGSLRLSCEASGFTFDDYGMSWVRQDPGKGLEWVSGINWNGDRTNYADSVKGRFIISRDNAKNSVYLQMNSLRAEDSALYHCARDQGLGVAATLDYWGQGTLVTVSS
VL: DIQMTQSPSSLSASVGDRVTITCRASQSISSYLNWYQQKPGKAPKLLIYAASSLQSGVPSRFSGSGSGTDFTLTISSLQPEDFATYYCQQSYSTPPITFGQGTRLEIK
notes: as for B1
B8: 69329 (antibody, V domains shown)
VH: EVQLVESGGGLVQPGGSLRLSCAASGFTFSNYWMTWVRQAPGKGLEWVANIKEDGSEKDYVDSVKGRFTISRDNAKNSLYLQMNSLRGEDTAVYYCARDGEQLVDYYYYYVMDVWGQGTTVTVSS
VL: DIQMTQSPSSVSASVGDRVTITCRASQGISSWLAWYQQKPGKAPKLLIYAASSLQSGVPSRFSGSGSGTDFTLTISSLQPEDFATYYCQKANSFPYTFGQGTKLEIK
notes: as for B1
B9: 12812B (antibody, V domains shown)
VH: QVQLVQSGAEVKKPGSSVRVSCKASRGTFSSYAISWVRQAPGQGLEWMGGIIPIFGTANYAQKFLARVTITADESTSTAYMELSSLRSEDTAVYYCAREKGWNYFDYWGQGTLVTVSS
VL: DIQMTQSPPSVSASVGDRVTITCRASQGISSWLAWYQQKPGKAPKLLIYAASSLQSGVPSRFSGSGSGTDFTLTISSLQPEDFATYYCQQANSFPRTFGQGTKVEIK
notes: as for B1
B10: 12799B (antibody, V domains shown)
VH: QITLKESGPTLVKPTQTLTLTCTFSGFSLSTSGVGVVWIRQPPGKALEWLALIYWNDHKRYSPSLGSRLTITKDTSKNQVVLTMTNMDPVDTATYYCAHYSGSYSYYYYGLDVWGQGTTVTVSS
VL: DIQMTQSPSSVSASVGDRVTITCRASQGIASWLAWYQQKPGKAPELLIYAASSLQGGVPSRFSGSGSGTDFTLTISSLQPEDFAIYYCQQANYFPWTFGQGTKVEIK
notes: as for B1
B11: 69307 (antibody, V domains shown)
VH: EVQLVESGGGLVQPGGSLRLSCTASGFTFSNYWMTWVRQAPGKGLEWVANIKEDGSEKEYVDSVKGRFTISRDNAKNSLYLQMNSLRGEDTAVYYCARDGEQLVDYYYYYVMDVWGQGTTVTVSS
VL: DIQMTQSPSSVSASVGDRVTITCRASQGISSWLAWYQQKPGKAPKLLIYAASSLQSGVPSRFSGSGSGTDFTLTISSLQPEDFATYYCQKADSLPYAFGQGTKLEIK
notes: as for B1
B12: 12839B (antibody, V domains shown)
VH: QVQLVESGGGVVQPGRSLRLSCAASGFPFSNYVMYWVRQAPGKGLEWVALIFFDGKKNYHADSVKGRFTITRDNSKNMLYLQMNSLRPEDAAVYYCAKIHCPNGVCYKGYYGMDVWGQGTTVTVSS
VL: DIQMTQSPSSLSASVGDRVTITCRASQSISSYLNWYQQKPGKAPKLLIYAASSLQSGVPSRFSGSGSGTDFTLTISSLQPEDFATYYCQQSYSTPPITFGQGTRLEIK
notes: as for B1
B13: 12850B (antibody, V domains shown)
VH: QVQLVQSGAEVKKPGSSVKVSCKASGGTFNTYAITWVRQAPGQGLEWMGGIIPISGIAEYAQKFQGRVTITTDDSSTTAYMELNSLRSEDTAVYYCASWNYALYYFYGMDVWGRGTTVTVSS
VL: not shown
notes: as for B1
B14: 12795B (antibody, V domains shown)
VH: EVQLVESGGGLVQPGGSLRLSCATSGFTFTSYDMKWVRQAPGLGLEWVSAISGSGGNTYYADSVKGRFTISRDNSRNTLYLQMNSLRAEDTAVYYCTRSHDFGAFDYFDYWGQGTLVTVSS
VL: DIQMTQSPSSLSASVGDRVTITCRASQGIRDHFGWYQQKPGKAPKRLIYAASSLHSGVPSRFSGSGSGTEFTLTISSLQPEDFATYYCLQYDTYPLTFGGGTKVEIK
notes: as for B1
B15: 12801B (antibody, V domains shown)
VH: EVQLLESGGALVQPGGSLRLSCAASGFTFTSYAMHWVRQAPGKGLEWVSSIRGSGGGTYSADSVKGRFTISRDNSRDTLYLQMNSVRAEDTAVYYCARSHDYGAFDFFDYWGQGTLVTVSS
VL: DIQMTQSPSSLSASVGDRVTITCRASQGIRTDLGWYQQKPGKAPKRLIYAASSLQSGVPSRFSGSGSGTEFTLTISSLRPEDFATFYCLQYNSYPLTFGGGTKVEIK
notes: as for B1
B16: 12848B (antibody, V domains shown)
VH: EVQLVESGGGLVQPGRSLTLSCAASGFTFDNFGMHWVRQGPGKGLEWVSGLTWNSGVIGYADSVKGRFTISRDNAKNSLYLQMNSLRPEDTALYYCAKDIRNYGPFDYWGQGTLVTVSS
VL: not shown
notes: as for B1
B17: 69305 (antibody, V domains shown)
VH: QVQLVESGGGVVQPGRSLRLSCAASGFTFSSYGMHWVRQAPGKGLEWVAVIWYDGSNKYYADSVKGRFTISRDISKNTLYLQMNSLRAEDTAVYYCAGQLDLFFDYWGQGTLVTVSS
VL: DIQMTQSPSSLSASVGDRVTITCRASQSIDRYLNWYRQKPGKAPKLLIYTTSSLQSGVPSRFSGSGSGTDFTLTLSSLQPEDFATYYCQQSYSPPLTFGGGTKVEIK
notes: as for B1
B18: 12802B (antibody, V domains shown)
VH: QVQLVESGGGLVKPGGSLRLSCAASGFTFSDYFMSWIRQAPGKGLEWVSYISSTGSTINYADSVKGRFTISRDNVKNSLYLQMTSLRVEDTAVYYCTRDNWNYEYWGQGTLVTVSS
VL: EIVMTQSPATLSVSPGERATLSCRASQSVSINLAWYQQKPGQAPRLLIFVASTRATGIPARFSGSGSGTEFTLTISSLQSEDFATYYCQQYDIWPYTFGQGTKLEIK
notes: as for B1
B19: 12834B (antibody, V domains shown)
VH: QVQLVQSGAEVKKPGASVKVSCKASGYTFTSYGISWVRQAPGQGLEWMGWISVYHGNTNYAQKFQGRVTMTTDTSTSTAYMELRSLRSDDTAVYYCAREGYYDFWSGYYPFDYWGQGTLVTVSS
VL: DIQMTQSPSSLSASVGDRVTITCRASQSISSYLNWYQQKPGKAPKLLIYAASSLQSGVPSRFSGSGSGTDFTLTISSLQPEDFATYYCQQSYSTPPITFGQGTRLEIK
notes: as for B1
B20: 12843B (antibody, V domains shown)
VH: EVQLVESGGGLVQPGGSLRLSCAASGFTFNIFEMNWVRQAPGKGLEWISYISSRGTTTYYADSVRGRFTISRDNAKNSLYLQMNSLRAEDTAVYYCARDYEATIPFDFWGQGTLVTVSS
VL: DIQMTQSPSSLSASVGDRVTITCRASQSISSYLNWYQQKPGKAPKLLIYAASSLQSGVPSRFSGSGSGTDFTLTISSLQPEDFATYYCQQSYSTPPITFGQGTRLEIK
notes: as for B1
B21: 31874B (antibody, V domains shown)
VH: EVQLVESGGGLVQPGGSLRLSCAASGFAFSSYAMTWVRQAPGKGLEWVSVISGTGGSTYYADSVKGRFTISRDNSKNTLYLQMNSLRAEDTAVYYCAKGGAARRMEYFQYWGQGTLVTVSS
VL: DIQMTQSPSSLSASVGDRVTITCRASQGISNYLAWYQQKPGKVPNLLIYAASTLQSGVPSRFSGSGSGTDFTLTISSLQPEDVATYYCQKYNSAPLTFGGGTKVEIK
notes: as for B1
B22: 31863B (antibody, V domains shown)
VH: EVQLVESGGGLVQPGGSLRLSCAASGFTFNSYAMTWVRQAPGKGLEWVSFIGGSTGNTYYAGSVKGRFTISSDNSKKTLYLQMNSLRAEDTAVYYCAKGGAARRMEYFQHWGQGTLVTVSS
VL: DIQMTQSPSSLSASIGDRVTITCRASQGISNYLAWYQQKPGKVPKLLIYAASTLQSGVPSRFSGSGSGTDFTLTISSLQPEDVATYYCQNHNSVPLTFGGGTKVEIK
notes: as for B1
B23: 12835B (antibody, V domains shown)
VH: EVQLVESGGGLIQPGGSLRLSCEASGFTFRNYEMNWVRQAPGKGLEWVSYISSSGNMKDYAESVKGRFTISRDNVKNSLQLQMNSLRVEDTAVYYCARDEFPYGMDVWGQGTTVTVSS
VL: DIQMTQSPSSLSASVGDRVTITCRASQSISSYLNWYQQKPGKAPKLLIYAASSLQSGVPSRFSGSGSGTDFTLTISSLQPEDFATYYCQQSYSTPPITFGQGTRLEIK
notes: as for B1
B24: 12798B (antibody, V domains shown)
VH: EVQLVESGGDLVQPGRSLRLSCAASGFTFDDYAMHWVRQAPGKGLEWVSGISWNSATRVYADSVKGRFTISRDNAKNFLYLQMNSLRSEDTALYHCAKDMDISLGYYGLDVWGQGTTVTVSS
VL: not shown
notes: as for B1
B25: 69323 (antibody, V domains shown)
VH: EVQLVESGGGLVQPGRSLRLSCAASGFTFDDYAMHWVRQAPGKGLEWVSGISWNSGYIGYADSVKGRFTISRDNAENSLHLQMNSLRAEDTALYYCARGGSTLVRGVKGGYYGMDVWGQGTTVTVSS
VL: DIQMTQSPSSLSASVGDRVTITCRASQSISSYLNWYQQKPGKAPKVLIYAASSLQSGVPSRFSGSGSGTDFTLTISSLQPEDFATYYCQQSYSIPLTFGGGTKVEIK
notes: as for B1
B26: 12841B (antibody, V domains shown)
VH: EVQLVESGGGLVQPGGSLRLSCAASGFTFSNYWMNWVRQAPGKGLEWVANIKEDGGKKLYVDSVKGRFTISRDNAKNSLFLQMNSLRAEDTAVYYCAREDTTLVVDYYYYGMDVWGQGTTVTVSS
VL: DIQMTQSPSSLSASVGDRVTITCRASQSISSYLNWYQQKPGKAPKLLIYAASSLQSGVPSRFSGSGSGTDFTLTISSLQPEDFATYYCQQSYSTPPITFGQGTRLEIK
notes: as for B1

T1 sequence (P02786 89-760 limits assumed): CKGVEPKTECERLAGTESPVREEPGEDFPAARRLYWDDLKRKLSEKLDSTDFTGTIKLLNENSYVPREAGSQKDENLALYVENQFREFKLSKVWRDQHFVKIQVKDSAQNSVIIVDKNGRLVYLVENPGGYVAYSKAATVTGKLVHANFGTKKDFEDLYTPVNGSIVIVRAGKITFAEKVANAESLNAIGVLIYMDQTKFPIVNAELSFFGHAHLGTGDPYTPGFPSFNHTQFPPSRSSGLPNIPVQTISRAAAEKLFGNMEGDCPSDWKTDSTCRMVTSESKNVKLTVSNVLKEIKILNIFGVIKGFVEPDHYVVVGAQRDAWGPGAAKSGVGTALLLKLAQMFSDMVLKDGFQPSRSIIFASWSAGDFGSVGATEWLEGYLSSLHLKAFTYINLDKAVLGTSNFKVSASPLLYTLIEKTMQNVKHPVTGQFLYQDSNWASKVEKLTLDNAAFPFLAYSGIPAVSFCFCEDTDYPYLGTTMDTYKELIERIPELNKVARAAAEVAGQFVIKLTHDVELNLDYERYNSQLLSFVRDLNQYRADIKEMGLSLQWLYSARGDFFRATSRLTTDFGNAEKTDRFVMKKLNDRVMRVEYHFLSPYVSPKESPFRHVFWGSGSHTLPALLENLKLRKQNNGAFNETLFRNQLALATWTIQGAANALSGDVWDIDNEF

This experiment concerns the target T1, human transferrin receptor 1 (hTfR) (human, UniProt P02786 89-760, limits assumed).
T1 construct: also called TFRC; transferrin receptor protein 1
Kind of experiment: in vitro binding screen, method not described.
On to B1, for which the binding result is on record as “binds”.

As for B2, the binding result is reported as “binds”. Regarding B3, the binding result is reported as “binds”. Next, B4: “binds”; B5: “binds”.

As for B6, the binding result is given as “binds”. Regarding B7, the binding result is “binds”.

For B8, the binding result was “binds”. Next, B9: “binds”. For the molecule B10, the binding result is “binds”. Next, B11: “binds”; B12: “binds”; B13: “binds”. Turning to B14, the binding result is on record as “binds”.

On to B15, for which the binding result is “binds”.

Take B16: the binding result is listed as “binds”.

Consider B17, for which the binding result was “binds”. With B18 the entry was “binds”; with B19, “binds”; with B20, “binds”. With B21 the entry was “binds”. With B22 the entry was “binds”. B23: the binding result is “binds”. With B24, the binding result is “binds”. Next, B25: “binds”; B26: “binds”.
